B1: FOG2-wt: The wild type of FOG2; full-length FOG2 cDNA cloned into the pCK-flag vector and overexpressed (protein)
chain: MSRRKQSKPRQIKRPLEDAIEDEEEECPSEETDIISKGDFPLEESFSTEFGPENLSCEEVEYFCNKGDDEGIQETAESDGDTQSEKPGQPGVETDDWDGPGELEVFQKDGERKIQSRQQLPVGTTWGPFPGKMDLNNNSLKTKAQVPMVLTAGPKWLLDVTWQGVEDNKNNCIVYSKGGQLWCTTTKAISEGEELIAFVVDFDSRLQAASQMTLTEGMYPARLLDSIQLLPQQAAMASILPTAIVNKDIFPCKSCGIWYRSERNLQAHLMYYCSGRQREAAPVSEENEDSAHQISSLCPFPQCTKSFSNARALEMHLNSHSGVKMEEFLPPGASLKCTVCSYTADSVINFHQHLFSHLTQAAFRCNHCHFGFQTQRELLQHQELHVPSGKLPRESDMEHSPSATEDSLQPATDLLTRSELPQSQKAMQTKDASSDTELDKCEKKTQLFLTNQRPEIQPTTNKQSFSYTKIKSEPSSPRLASSPVQPNIGPSFPVGPFLSQFSFPQDITMVPQASEILAKMSELVHRRLRHGSSSYPPVIYSPLMPKGATCFECNITFNNLDNYLVHKKHYCSSRWQQMAKSPEFPSVSEKMPEALSPNTGQTSINLLNPAAHSADPENPLLQTSCINSSTVLDLIGPNGKGHDKDFSTQTKKLSTSSNNDDKINGKPVDVKNPSVPLVDGESDPNKTTCEACNITFSRHETYMVHKQYYCATRHDPPLKRSASNKVPAMQRTMRTRKRRKMYEMCLPEQEQRPPLVQQRFLDVANLNNPCTSTQEPTEGLGECYHPRCDIFPGIVSKHLETSLTINKCVPVSKCDTTHSSVSCLEMDVPIDLSKKCLSQSERTTTSPKRLLDYHECTVCKISFNKVENYLAHKQNFCPVTAHQRNDLGQLDGKVFPNPESERNSPDVSYERSIIKCEKNGNLKQPSPNGNLFSSHLATLQGLKVFSEAAQLIATKEENRHLFLPQCLYPGAIKKAKGADQLSPYYGIKPSDYISGSLVIHNTDIEQSRNAENESPKGQASSNGCAALKKDSLPLLPKNRGMVIVNGGLKQDERPAANPQQENISQNPQHEDDHKSPSWISENPLAANENVSPGIPSAEEQLSSIAKGVNGSSQAPTSGKYCRLCDIQFNNLSNFITHKKFYCSSHAAEHVK
modifications: left off: small tags and cut ends
notes: The wild type of FOG2; full-length FOG2 cDNA cloned into the pCK-flag vector and overexpressed

Assays:
Type in all cases: cell-based
MDA MB 231 cells [1] = assay: Cell migration, modified Boyden chamber method; details: 18 hr migration
Summary of the method: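 MDA MB 231 cells, transfected with FOG2 constructs (24 hr) or treated 2 days with 4 μM peptides/DMSO, were seeded serum-free (1×10^5) in Boyden chambers, serum-free below, 18 hr at 37° C. Giemsa-stained migrated cells counted in six random fields; mean cells per field.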

MDA MB 231 cells [2] = assay: Apoptosis by FACS analysis (propidium iodide) in MDA MB 231 cells; details: for number of apoptotic cells: transfected with 1 μg FOG2 fragment, 2 days, FIG. 7A
Procedure: PI3K inactivation has been reported to cause cancer cell apoptosis, and FOG2 is known to inhibit the PI3K activity. To test whether PI3K inactivation by overexpressing FOG2 induces apoptosis, MDA MB 231 cells overexpressed FOG2 were analyzed with FACS.
MDA MB 231 cells were incubated with Full-FOG2[1-1151], FOG2[1-412], FOG2[413-789] or FOG2[802-1151]. The cells (5×10^4) were seeded in a 12-well plate and transfected with 1 μg of Full-FOG2[1-1151], FOG2[1-412], FOG2[413-789] or FOG2[802-1151] using Lipofectamine 2000. The cells were incubated at 37° C. for 2 days and subject to FACS analysis.
The cells were incubated with FOG2 fragments and fixed with 70% ethanol for 16 hr. The fixed cells were stained using RNase (5 mg/ml) and propidium iodide ([…]). The amount of DNA in stained cells was analyzed with Cell Quest program of FACS caliber (Becton Dickinson).

PI3K [3] = target: T1, PI3K (Homo sapiens, UniProt P27986); assay: PI3K activity in MDA MB 231 cells incubated with zinc finger domain peptides; set-up: The cell lysates were immunoprecipitated with p85α (sc-1637, Santa Cruz) and Protein G-Sepharose beads; endogenous in cells; details: synthesized peptides, FIG. 5
Procedure: (§1) For measurement of PI3K activity, 10 μl of sonicated PIP2 (1 μg/μl, Calbiochem), 10 μl of 100 mM MgCl2 and 1 μl of [-^32P]ATP (500 μCi/ml) were added to the kinase buffer (10 mM Tris-HCl (pH 7.4), 150 mM NaCl, 1 mM Na3VO4, 10 mM ZnCl2) and incubated at 37° C. for 30 min. After incubation, 20 μl of 6 N HCl was added to stop the reaction and PIP2 was extracted by treatment with 200 μl of methanol:chloroform (1:1) solution. The amount of radioactively labeled PIP2 in the extract was measured using a scintillator counter.
For peptide treatment, cells were trypsinized to detach them from a culture dish and their aliquot (2×10^5 cells) was incubated with 4 μM peptides in 100 mm dishes. The control was incubated with Mock (DMSO).

MCF 7 = assay: Apoptosis by FACS analysis in MCF7 cells; details: synthesized peptides, FIG. 7D
Excerpt: FIG. 7D is a graph showing the apoptotic effect by synthesized zinc finger domain peptides of FOG2 in MCF7 cells according to FACS analysis;

PI3K [4] = target: T1, PI3K; assay: IGF-1-induced PI3K activation in Hep3B cells incubated with peptides; set-up: The cell lysates were immunoprecipitated with p85α (sc-1637, Santa Cruz) and Protein G-Sepharose beads; endogenous in cells; host or cells: Hep3B; details: 4 μM peptides, 48 hr, FIG. 2C
Procedure: as §1
In addition, Hep3B liver cancer cells were incubated with 4 μM peptides for 48 hr and the PI3K activity was analyzed.

Hep3B cells = assay: Apoptosis by FACS analysis in Hep3B cells; details: synthesized peptides, 48 hr of treatment, FIG. 4B
Procedure: PI3K inactivation is known to cause cancer cell apoptosis, and FOG2 is known to inhibit PI3K activity. To test whether PI3K inactivation by overexpressing FOG2 induces apoptosis, Hep3B cells treated with the peptide synthesized in <Experiment 3> were analyzed with FACS.

HCT116 cells = assay: Apoptosis by FACS analysis in HCT116 cells; details: 2 days after transfection, FIG. 4A
Procedure: PI3K inactivation is known to cause cancer cell apoptosis, and FOG2 is known to inhibit PI3K activity. To test whether PI3K inactivation by overexpressing FOG2 induces apoptosis, HCT116 cells transfected with pCK-flag (control), FOG2-wt (wild type) and FOG2 mutants (FOG2-ZF-5-m and FOG2-ZF-6-m) were analyzed with FACS.

MDA MB 231 cells [5] = assay: Cell proliferation MTT assay; details: transfected with 100 ng DNA, 3 days post-transfection, FIG. 6A
Summary of the method: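 Cells (2×10^3/well) were treated with 4 μM peptide for 3 days, or transfected with 100 ng FOG2 wild-type or zinc-finger mutant plasmid and assayed 3 days later. MTT (2 mg/ml) was added for 1 h at 37 °C, dissolved in DMSO, and absorbance was read at 590 nm.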

PI3K [6] = target: T1, PI3K; assay: PI3K activity in Hep3B cells transfected with FOG2 constructs (p85α immunoprecipitation, 32P-ATP/PIP2 kinase assay); set-up: The cell lysates were immunoprecipitated with p85α (sc-1637, Santa Cruz) and Protein G-Sepharose beads; endogenous in cells; host or cells: Hep3B; details: 100 ng/ml IGF-1 30 min, FIG. 1C
Procedure: To investigate the inhibitory effect to PI3K activity by FOG2 zinc finger domain, PI3K activity was analyzed using FOG2 mutants having modified zinc finger domain. Specially, it is known that IGF signaling pathway plays an important role in cancer and the increased IGF-1 level enhances the risk of various cancers in many researches.
Accordingly, the PI3K activity was increased by incubating Hep3B cells with IGF-1 and then measured when the cells were incubated with peptides having mutated FOG2 zinc finger domain.
After Hep3B cells incubation, 100 ng/ml IGF-1 (Insulin like growth factor-1) was added to the cells and incubated for 30 min.
Hep3B cells were transfected with pCK-flag (control), FOG2-wt (wild type) and FOG2 mutants having modified zinc finger domain (FOG2-ZF-5-m and FOG2-ZF-6-m). Two days later, the lysates were obtained using a lysis buffer (20 mM Hepes (pH7.4), 100 mM NaCl, 20 mM KAc, 10 mM MgCl2, 10 mM ZnCl2, 1 mM Na3VO4, 1% NPO4). The cell lysates were immunoprecipitated with p85α (sc-1637, Santa Cruz) and Protein G-Sepharose beads using the same method above. After binding to beads, the lysates were washed 2 times with the lysis buffer and one time with the wash buffer (0.1 M Tris-HCl (pH 7.4), 5 mM LiCl, and 0.1 mM Na3VO4).
as §1

Akt = Akt phosphorylation by Western blot in transfected Hep3B cells after IGF-1 stimulation; details: FIG. 1D
Procedure: Hep3B cells were transfected with FOG2 mutants having modified zinc finger domain to measure the effect on the Akt signaling by FOG2-ZF-5m. The Akt activity was measured by analyzed Akt phosphorylation.
Hep3B cells were transfected with pCK-flag (control), FOG2-wt (wild type) and FOG2 mutants having modified zinc finger domain (FOG2-ZF-5-m and FOG2-ZF-6-m) and stimulated with IGF-1. The expression of Akt (Cell signaling Technology, USA), pAkt (Cell signaling Technology, USA) and GAPDH(Santa cruz, USA) were measured by Western blot analysis.

T1 sequence (P27986 whole entry, the tested form may be a part): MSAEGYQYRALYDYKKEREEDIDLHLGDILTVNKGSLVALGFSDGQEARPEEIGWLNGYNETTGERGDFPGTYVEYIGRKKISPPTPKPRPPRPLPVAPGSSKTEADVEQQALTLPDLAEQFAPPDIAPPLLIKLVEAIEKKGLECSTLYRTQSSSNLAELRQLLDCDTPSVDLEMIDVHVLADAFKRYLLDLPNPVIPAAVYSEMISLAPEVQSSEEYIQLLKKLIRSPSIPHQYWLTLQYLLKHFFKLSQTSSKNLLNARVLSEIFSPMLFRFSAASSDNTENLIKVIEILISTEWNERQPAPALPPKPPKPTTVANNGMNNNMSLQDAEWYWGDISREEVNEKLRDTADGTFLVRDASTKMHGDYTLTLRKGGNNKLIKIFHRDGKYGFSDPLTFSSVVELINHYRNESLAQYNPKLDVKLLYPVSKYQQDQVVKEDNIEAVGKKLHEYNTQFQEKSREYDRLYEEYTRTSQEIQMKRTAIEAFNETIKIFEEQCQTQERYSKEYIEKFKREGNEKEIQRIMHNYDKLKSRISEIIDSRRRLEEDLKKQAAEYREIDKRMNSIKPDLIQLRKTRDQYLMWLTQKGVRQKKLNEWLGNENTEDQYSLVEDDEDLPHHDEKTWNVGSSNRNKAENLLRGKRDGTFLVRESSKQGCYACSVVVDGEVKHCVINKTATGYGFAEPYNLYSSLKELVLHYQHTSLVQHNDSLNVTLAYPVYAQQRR

Row | PI3K activity (PI3K [3]) | IGF-1-induced PI3K activation (PI3K [4]) | Molecule | reduction of cell migration (MDA MB 231 cells [1]; 4 μM peptide, 2 days of treatment, FIG. 3B) | apoptosis (MDA MB 231 cells [2]; synthesized peptides, FIG. 7C) | apoptosis (MCF 7) | apoptosis (Hep3B cells) | apoptosis (HCT116 cells) | reduction of cell proliferation (MDA MB 231 cells [5]) | reduction of cell migration (MDA MB 231 cells [1]; transfected 24 hr, FIG. 3A) | number of apoptotic cells (MDA MB 231 cells [2]; listed as FOG2[1-1151]) | number of apoptotic cells (MDA MB 231 cells [2]; listed as Full-FOG2[1-1151]) | PI3K activation by IGF-1 stimulation (PI3K [6]) | Akt phosphorylation (Akt) | Akt phosphorylation (Akt; listed as FOG2-ZF-wt)
1 | decrease PI3K activity | inhibited | ZF-5-wt-20: The peptide comprising a portion of the fifth zinc finger domain of FOG2 (20 amino acids) (CFECNITFNNLDNYLVHKKH) | reduce the cell migration | promoted apoptosis | promoted apoptosis | induced apoptosis |  |  |  |  |  |  |  | 
2 |  |  | B1 |  |  |  |  | increased apoptosis | about 40% | approximately 80% | reduces the apoptosis | increased | inhibited | decreased | inhibited
